20 sequences from a protein production outcome set (Wang et al. 2014) can be followed below.

This series is described as follows: label from the status in PepcDB records.
Turning to “MVKTMAKKKAVKVLRKQKKRETLRRFTQKQNIGRACLTAQEFRLLQRMSHSSKALRNVGLYTMKQSYLNHNKMATVKEVDIAMQADMNYWGIQSNSLQAIRRALFTEVKSFFKALEKWKKNPEKFTGRPKFPNYSHSTDKRIIEIYQVPKVDENGFWMIPMSVAFRKKFGSIKIRMPKNLRNKNISYIEIVPKQKGRFFEVHYTYEMHVSQMKKQPMTTSNALGCDLGVDRLVSCVTNTGDAFLIDGKKLKSINQYFNKTIRNLQQKNVENGLSKRIVTNKIAALWHKRERQIHGYIAQTVGLLFKKVKEFDIDTIVVGYNAGWKQNSHMGKKNNQKFVQIPFHKLIAAIENKCIKEGIRFFKQEESYTSKASFLDKDPVPVWSKDDRTQYRFSGKRITRGLYQSKAGTCIHADINGALNTLQKSQVVELDGNLKVKTPILLEVQKRKAVASRIALEHHHHHH”, the protein production entry was “failed”.

As to “MNQDLSQTFLAITRNSTDLEWLQGALAPLGQVVGADGSLDELLALVDVTFANLVFVGLDREHVVAQAALIEGALEAKPMLAIVALGDGMDNQLVLNAMRAGARDFVAYGSRSSEVAGLVRRLSKRLPAVTPNTQLGGLTVLYGAQGDGDGALLASHLALVVQKSGQQTLLLDLGLPRGDSLALLGLESSFHFGDALRHLRRLDATLIDSAFTSAEAGLRILAYASHDAPLEHTSAAELYMLLSALRQHFQHIVVNLVGQPDSEALRTFVSHCDKLLWCTDQNVLDCRRNLAVLNHWREKGMKLEHARLLVDRYLRTVAPDSETLGKTFGLEVIAVLAYSPEVRLNAKNQGVTLFELAPREALTQSLRTLGERLAKRSQGLPKPKAGWLNRIMGGRLEHHHHHH”, the protein production entry was “failed”.

Consider “MSLAWLISEFASVGDVTVRALRYYDKINLLKPSDYTEGGHRLYTKDDLYVLQQIQSFKHLGFSLGEIQNIILQRDIETEVFLRQMHFQREVLLAEQERIAKVLSHMDEMTKKFQKEERVNVALFSSFLQTFIWEKENKEGHHHHHH”, for which the protein production result is “not failed”.

With “MWTDSREALSDLQLGECERVLDVGCGTGELTRVLREETDGTVVGLDADTDLLAAAGDPTVCGDATQLPFDDDSFDLVVCQALLINLPDPEVAVREFARVATDRVAAIEPNNAAVTVESTVDAEPMLARRARRLFLDGVRTDVTLGSDAADVFSDAELTVVSTTQYDQEQQIEPPYDDAAMQAARRKATGTGLAHDRETILNGEATPAEYDALRERWRSMGRDVVEQMQDEAYERHETVPFFVTVGEIP”, the protein production entry was “failed”.

As to “MTYQALMFDIDGTLTNSQPAYTTVMREVLATYGKPFSPAQAQKTFPMAAEQAMTELGIAASEFDHFQAQYEDVMASHYDQIELYPGITSLFEQLPSELRLGIVTSQRRNELESGMRSYPFMMRMAVTISADDTPKRKPDPLPLLTALEKVNVAPQNALFIGDSVSDEQTAQAANVDFGLAVWGMDPNADHQKVAHRFQKPLDILELFK”, the protein production result was “not failed”.

“MCDCLSIILLVKMKKIYLKFVDFWDGFDTISNFIVDALSIQYEVVLSNEPDYLFYSCFGTSHLEYDCIKIMFIGENIVPDFNVCDYAIGFNYIDFGDRYLRLPLYAIYDGFSNLQNKKIDVNKALDRKFCSIVVSNNKWADPIRETFFKLLSSYKKVDSGGRAWNNIGGPVDNKLDFISQYKFNIAFENSRVLGYTTEKIMEPMQVNSIPVYWGNPLVGKDFNVDSFVNAHDFDSLERLVEYIIELDSSKDKYLEMLEKPWLLDKTYLDWKQLLLNFINNIMMKSYKDAKYLVNYGHAGKYRNEQRFWGRCERKFKLQRIIEYYSQLFDRKLEHHHHHH”: the protein production result is on record as “failed”.

“MRFHLPGPEDTVRLGRALAKALLQIDGLRVVLLAGTLGSGKTTMTRGLVAELPGGGMAEVSSPSFNICNLYPTTPPTAHFDLYRLEGNEPDDALLDLIDEGESIILIEWAEHLPEYALPPVWLRLAWHAAGEGRIVEAHGNGAPALVALDMVAAGVPDLVQP”: the protein production result was “failed”.

For “MEFVLASASPARRRLLQGIGINPIVHVSHFDESQIHHDDPAQLVEALAAAKAKTVAQHRQDALILGCDSVLHVRGEILGKPASPTEAIARWQTMRGHYGLLYTGHALVDQTQNQLLVRHGVTKVYFAAIDDDTIAAYVRSGEPLQCAGCFALEGKGGLFIEKIEGCHSNVIGLSLPLLREMLAHLGYTVQTLWP”, the protein production entry is recorded as “failed”.

Consider “SSGVIAFDEGFRVTTVNQGAQTILQADLRSVIGRPLETVDGMLEFAQVVRQAFAAHAAVGSERLHWQQQFEITPGLDETGGQPVTLLARGTHLRVD”, for which the protein production result is given as “failed”.

Regarding “MQNPRRICVADPNHRLSQKRFTRNSRDIFICPDCGCIMADVDFDHDQYESGDYYTMQHKTVQSIEEVWGFRWRYILDQILKINGRSSLLDVGAGNGYFVALASREFSFDASGLEISQEEVQFAADVLNIGLIREDLTQHNLDYDVVTCLNVLEHVVDPQLFLSHLVNRVKPGGLLVITTPNPACIHRKVKGLKNWNMIAPPHHINLFTKESLYILLMRYGLIQLDYQTISTYVNFVRGFDTENLLLRRLFFNLLKIFDLGADHFFIVKKPSQC”, the protein production result is on record as “failed”.

With “MSFDRNLCKVLVADDSRLVTSSVTAILRQLDLSDIYYAYKPFEVINLCKQMHFDLVICDYNFQTQLNGFQLLEELKHAQILPAHTTFVFLTGENDHKIVRSIVDCDPDDYLLKPFNHTFFRNRLLSAMKRRSVLLPIYEKLREMDFEGVIEATDTLLPFHPEYSKLIRRYRAHAMVQNKQFSSARSEYEKLLKEDNFDWIKTALANTLIETDNLEKAQEVLESLSSKKENPYYHDEMSNMAVLSEDIPKAIKHLKQSTMLLDAGSERELVITNLSLASESYDDAVTYIKRYYEKNENTFRGGIFTKLNFVRCHLYRSLNAPSNQCFENLLFGLNPLIGEIEKNSQFKAQFALIDAHIALIRGDLKAAISQVRAVLASNQLSHFYDLYHLCVLLERCSFLSEMKSMLPRARRAIAEAQHPSIFRSQVHMLKSLEMRLQESQTKIEQIRRQITAQKSISTSAITPHFDRYFQLHDLLPHSKKICLAIVRLASLRPFEYRGEYAIYRKLEHCDRVIRNLCDNRELQSIKYNNMYQYAKQNITVSNG”, the protein production entry is recorded as “failed”.

For “MTEQDIYKLLADGERVTLECKKAQNGVPNSLWETYSAFANTNGGILLLGVYENVAEKDSLMRFTITGVEDADKIRKDLWNTINSREKVNVNLLHDEDVQTISVNGKEVIAINVPRADYNLRPVYINNNLMRGTYRRNHEGDYHCTEQMIKMMVRDAYEDGNDRMFLEYYTMDDIDIPTLEGYRVMFKTNNPEHIWNSLDHKEFLMQLGGYVVNRKDGTEGLTIAGLLMFGKGLPVRERFDYLRMDYIDKSNLIGDQRYSDRLTYDGTWENNLFNFIRMVVPRLTRDIPRPFQMDGIIRKDDTPQHKAVREAFTNMIIHADLMLNGLLRVEKYDDRFVLSNPGLLKLPVEQIYAGGESKARNQRMQHMLRMIGYGENLGSGFPLILSAWNEKHWLKPELVEQPELMQVKLILHIENRVYVTKDVTKDVTKELTERQQIILEFMQADGTITISEMSQKTNVTERTIKRDIESLTEKGILSREGGRKEGRWVIRKILEHHHHHH”, the protein production entry is recorded as “not failed”.

On to “MSLKITGVNIYLLKSGRLHPVLVEISTDEGITGAGEAGIAYGVGGTAAAGMIKDLSERFLIGKDPSRIEELWSTMYDHSFWAKNGGAIIFAGISAIEQALWDIKGKCLGVPVYELFGGKIRDRVRAYANGWYGAADTPDEFARAVERPLKEGYGALKFYPLAQRVGSALQHVTRRSMSAEAIELAYRRVKAVRDAAGPEIELMVDLSGGLTTDETIRFCRKIGELDICFVEEPCDPFDNGALKVISEQIPLPIAVGERVYTRFGFRKIFELQACGIIQPDIGTAGGLMETKKICAMAEAYNMRVAPHVCGSSLIETATLQLEANITNFMIHEHYPAFKADDGYVEVLENPPSISSGYFEMPNGPGLGAVLIKRNIEPYLWASCTEGHHHHHH”, for which the protein production entry is reported as “not failed”.

As to “MGVSFKISKVGRKFRPKISTELATPDSPKAIVLSGKPKATDDSNIGDVSGFSKPSLPDISPDHEVSFILSLYPNGYSIGKTSEAMQQISFRDVPKVLHPYDRAAEGLLSAIEAGRLPGDILEDIPCKFVDGVVICEVHDYRKHTSSQVSPVINKLRLKMSLENVVKDIPSMSDNSWTYGDLMVIMVARGL”, the protein production result was “failed”.

Take “MSLRSEQEMMDIFLDFALNDERIRLVTLEGSRTNRNIPPDNFQDYDISYFVTDVESFKENDQWLEIFGKRIMMQKPEDMELFPPELGNWFSYIILFEDGNKLDLTLIPIREAEDYFANNDGLVKVLLDKDSFINYKVTPNDRQYWIKRPTAREFDDCCNEFWMVSTYVVKGLARNEILFAIDHLNEIVRPNLLRMMAWHIASQKGYSFSMGKNYKFMKRYLSNKEWEELMSTYSVNGYQEMWKSLFTCYALFRKYSKAVSEGLAYKYPDYDEGITKYTEGIYCSVKEGHHHHHH”: the protein production result is given as “not failed”.

On to “MSAKDLPNGGPRLIDRYLLRLLLWPLAACLGVTVIALLLERILRLLDVLSQSSARFGYVAQLAANLVPHYLGLALPVAFFVALFIVIVKLSDGSEIDALLASGQSLERIAAPFVAVGVLLSVFSIIVFGYMQPYSRYAYRAVMHAAVNAGWNGRLAGGAFIDDKGSLLTADSADIAGQRLTRVFIRRLDAKGQEEIITAASADLKMDPDGKTITMDLRDGRRIAHDAYGTYRNLAFTSLTTQTPLSAAAVLLRDRGGDERELTMGELRREAKSPDPVVSKGTLLSEFYGRLARAAFLPFLPLLAFPLGLASKRGNRAPGLIMAGLLLLAFQHSLLLGQGMAKAGKADAFAAIWIPFTLFAALSVWLFVGSRTRPGDTPVSRLVRRINTLVTHALRLLPQPKKRQAA”, for which the protein production result was “failed”.

On to “MSIIDLTKLEQKVATMWDSILTNSPFIHEVLDGKATKALYAIYMTETYHYTKHNAKNQALVGIMGKDLPGKYLSFCFHHAHEEAGHELMALSDIASIGFDREDVLSSKPLPATETLIAYLYWISATGNPVQRLGYSYWAENVYGYIDPVLKAIQSTLDLTPQSMKFFIAHSKIDAKHAEEVNEMLHEVCKTQEDVDSVVAVMENSLVLTARILDDVWKEYQLFQSGASDRYAFLRDNA”, for which the protein production result is “not failed”.

As for “MEVCSTVTTKKLSSLAKLILFTIQKVSDASRHKLLTTLDPHLLAKRGKILRKSLNEAVSTSHSRITCRPSDHQDVRSSFISPVPLQLEYEFSCSSTPPRRSYATTVSKGRRSNGSHNRPLINKRQRQAYIRYNTLPKVRDSIWDRHVAAAVFPDVASSTGTMESCHVDRAAEEFIQSFYRQLRLQKWMMAQEV”, the protein production entry is “failed”.

For “MIELLISILTYALISLQSFYRKMDRPAASTIGAALMLAFGVMSLKEAVRAIDYNTIMLLFGMMVLTAYLGIAGFFDWLASKIMGFSGNGKRLLFTIVFSSGFLSALFVNDTICVFMTPVVVRVALSAGISPIPLLIALATSANVGSAVTIIGNPQNMLIGLKSGIGFVQFTAKMLPVGVAGIFIVYSVIYVLYRGELGKLRNGKIEVNLNRRLAAKGLLTFALVLILFVTEFYPVSLSAFIGAAIMFAIGGVKPREALEKVDWGLLLLFCNLFIVMHGFEKSYGEKILSMLSFGESFADYLYFSLLTVAGSNLVSNVPFVMMVLPAAKGAAADFWLILAMASTFAGNLTLIGSVANLIVAESAERHGVHLSFFEYLKAGVPVTFATVLVGALLIYIT”, the protein production entry is “failed”.

With “MRLTSKGRYAVTAMLDVALNSEAGPVPLADISERQGISLSYLEQLFSRLRKNGLVSSVRGPGGGYLLGKDASSIAVGEVISAVDESVDATRCQGKGGCQGGDKCLTHALWRDLSDRLTGFLNNITLGELVNNQEVLDVSGRQHTLEHHHHHH”, the protein production result is “not failed”.
